From the supplement of paper PMC10065799, “High-throughput profiling of sequence recognition by tyrosine kinases and SH2 domains using bacterial peptide display” (eLife, 2023)

Assays:
MERTK = MERTK (UniProt Q12866); assay: phosphorylation enrichment, bacterial display (enrichment ratio); higher = better substrate or ligand; peptides without Tyr show the background
Hck = Hck (UniProt P08631); assay: as above
EPHB2 = EPHB2 (UniProt P29323); assay: as above
Fes = Fes (UniProt P07332); assay: as above
Sequence of Fes (P07332 whole entry, looked up): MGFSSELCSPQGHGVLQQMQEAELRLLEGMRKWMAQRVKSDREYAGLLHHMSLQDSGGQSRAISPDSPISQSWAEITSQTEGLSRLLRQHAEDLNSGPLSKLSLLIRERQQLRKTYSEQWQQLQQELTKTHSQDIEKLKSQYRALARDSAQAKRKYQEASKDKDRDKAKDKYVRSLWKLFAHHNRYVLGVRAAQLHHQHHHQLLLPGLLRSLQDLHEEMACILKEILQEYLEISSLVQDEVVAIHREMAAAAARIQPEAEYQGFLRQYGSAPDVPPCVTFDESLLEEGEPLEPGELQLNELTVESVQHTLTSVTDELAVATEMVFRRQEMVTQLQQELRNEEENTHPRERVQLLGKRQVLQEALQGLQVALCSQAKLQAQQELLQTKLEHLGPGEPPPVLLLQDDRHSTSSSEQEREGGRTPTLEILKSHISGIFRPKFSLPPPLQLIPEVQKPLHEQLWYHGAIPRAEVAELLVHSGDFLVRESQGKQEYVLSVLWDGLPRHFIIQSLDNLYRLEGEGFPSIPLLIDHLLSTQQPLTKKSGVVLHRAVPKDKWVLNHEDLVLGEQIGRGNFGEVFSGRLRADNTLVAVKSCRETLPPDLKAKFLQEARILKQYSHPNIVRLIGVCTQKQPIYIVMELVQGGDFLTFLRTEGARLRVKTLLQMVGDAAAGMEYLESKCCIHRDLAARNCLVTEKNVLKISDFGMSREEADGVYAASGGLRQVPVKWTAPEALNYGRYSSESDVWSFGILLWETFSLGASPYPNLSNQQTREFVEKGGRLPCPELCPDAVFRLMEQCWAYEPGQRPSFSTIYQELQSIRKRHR

Jak2 = Jak2 (UniProt O60674); assay: as above
c-Abl (mouse) = assay: as above
FGFR1 = FGFR1 (UniProt P11362); assay: as above
Sequence of FGFR1 (P11362 whole entry, looked up): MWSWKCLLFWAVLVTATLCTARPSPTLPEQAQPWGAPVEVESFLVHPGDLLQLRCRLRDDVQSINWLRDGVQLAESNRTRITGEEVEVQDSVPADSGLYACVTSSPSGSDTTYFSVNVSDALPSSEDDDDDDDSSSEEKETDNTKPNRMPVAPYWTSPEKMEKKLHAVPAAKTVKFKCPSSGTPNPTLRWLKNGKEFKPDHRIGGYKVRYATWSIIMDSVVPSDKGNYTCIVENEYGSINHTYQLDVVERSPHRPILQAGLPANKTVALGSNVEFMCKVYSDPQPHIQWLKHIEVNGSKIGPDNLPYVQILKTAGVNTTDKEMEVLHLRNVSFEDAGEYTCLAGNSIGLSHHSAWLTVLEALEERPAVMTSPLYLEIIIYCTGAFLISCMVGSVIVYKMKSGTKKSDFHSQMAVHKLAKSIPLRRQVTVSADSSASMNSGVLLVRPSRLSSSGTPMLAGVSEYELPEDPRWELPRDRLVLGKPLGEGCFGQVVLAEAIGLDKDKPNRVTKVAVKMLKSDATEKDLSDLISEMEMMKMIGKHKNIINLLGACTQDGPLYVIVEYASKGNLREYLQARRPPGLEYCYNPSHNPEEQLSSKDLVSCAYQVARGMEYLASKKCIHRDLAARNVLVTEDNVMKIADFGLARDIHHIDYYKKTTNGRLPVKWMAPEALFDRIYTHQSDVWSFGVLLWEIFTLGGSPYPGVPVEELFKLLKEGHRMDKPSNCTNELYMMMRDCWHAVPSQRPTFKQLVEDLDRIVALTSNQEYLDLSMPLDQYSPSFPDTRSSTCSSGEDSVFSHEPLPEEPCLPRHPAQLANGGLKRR

Fer (mouse) = assay: as above
Fyn = Fyn (UniProt P06241); assay: as above
Sequence of Fyn (P06241 whole entry, looked up): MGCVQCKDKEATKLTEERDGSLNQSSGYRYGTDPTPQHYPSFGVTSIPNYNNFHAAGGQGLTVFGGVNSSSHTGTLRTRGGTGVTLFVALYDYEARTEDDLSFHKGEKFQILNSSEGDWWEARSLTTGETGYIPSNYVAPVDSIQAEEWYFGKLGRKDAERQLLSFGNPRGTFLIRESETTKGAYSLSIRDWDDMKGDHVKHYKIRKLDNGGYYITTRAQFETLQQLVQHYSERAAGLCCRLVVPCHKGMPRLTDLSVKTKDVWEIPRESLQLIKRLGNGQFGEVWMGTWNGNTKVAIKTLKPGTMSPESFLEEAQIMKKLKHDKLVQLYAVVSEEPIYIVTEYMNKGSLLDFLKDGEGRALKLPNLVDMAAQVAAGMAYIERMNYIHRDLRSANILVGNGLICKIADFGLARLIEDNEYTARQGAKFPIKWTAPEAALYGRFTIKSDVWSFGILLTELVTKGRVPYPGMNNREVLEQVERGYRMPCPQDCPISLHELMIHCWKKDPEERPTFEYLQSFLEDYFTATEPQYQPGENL

AncSZ = assay: as above
FGFR3 = FGFR3 (UniProt P22607); assay: as above
EPHB1 = EPHB1 (UniProt P54762); assay: as above
Sequence of EPHB1 (P54762 whole entry, looked up): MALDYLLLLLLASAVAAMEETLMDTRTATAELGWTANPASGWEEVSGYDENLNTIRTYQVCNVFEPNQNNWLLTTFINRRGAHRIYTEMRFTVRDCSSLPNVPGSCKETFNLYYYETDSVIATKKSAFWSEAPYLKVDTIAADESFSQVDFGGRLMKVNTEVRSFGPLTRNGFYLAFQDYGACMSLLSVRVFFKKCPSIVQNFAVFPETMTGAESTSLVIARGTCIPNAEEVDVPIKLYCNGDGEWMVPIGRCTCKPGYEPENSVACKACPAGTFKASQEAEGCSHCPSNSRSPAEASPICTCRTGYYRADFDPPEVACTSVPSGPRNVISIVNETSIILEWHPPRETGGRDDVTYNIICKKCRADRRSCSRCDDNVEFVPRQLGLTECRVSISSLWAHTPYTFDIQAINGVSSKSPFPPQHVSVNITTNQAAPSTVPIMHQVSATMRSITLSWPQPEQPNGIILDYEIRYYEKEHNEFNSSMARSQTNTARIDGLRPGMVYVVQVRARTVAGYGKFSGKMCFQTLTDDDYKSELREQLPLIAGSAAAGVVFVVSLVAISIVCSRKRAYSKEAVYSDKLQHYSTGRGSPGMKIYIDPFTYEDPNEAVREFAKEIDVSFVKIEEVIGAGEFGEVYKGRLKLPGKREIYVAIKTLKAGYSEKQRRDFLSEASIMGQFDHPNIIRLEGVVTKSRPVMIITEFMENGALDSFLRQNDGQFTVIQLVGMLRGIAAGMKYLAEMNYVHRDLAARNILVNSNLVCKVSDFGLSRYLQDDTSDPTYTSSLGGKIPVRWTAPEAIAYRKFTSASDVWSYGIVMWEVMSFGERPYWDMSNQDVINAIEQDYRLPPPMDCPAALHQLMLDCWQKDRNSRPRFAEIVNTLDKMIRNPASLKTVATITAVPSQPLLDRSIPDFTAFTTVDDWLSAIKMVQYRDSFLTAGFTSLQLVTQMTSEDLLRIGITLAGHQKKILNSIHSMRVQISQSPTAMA

c-Src = assay: as above
Grb2 SH2 = Grb2 SH2 (UniProt P62993); assay: SH2 binding enrichment of the phosphorylated peptide, bacterial display (enrichment ratio); higher = better substrate or ligand; peptides without Tyr show the background
Sequence of Grb2 SH2 (P62993 whole entry, looked up): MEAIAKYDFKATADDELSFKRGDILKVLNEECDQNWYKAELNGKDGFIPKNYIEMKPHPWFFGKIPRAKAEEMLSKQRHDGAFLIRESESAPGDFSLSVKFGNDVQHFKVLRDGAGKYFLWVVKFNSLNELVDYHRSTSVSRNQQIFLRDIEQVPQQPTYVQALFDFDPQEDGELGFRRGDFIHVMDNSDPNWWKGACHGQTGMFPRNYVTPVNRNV

c-Src SH2 = assay: as above
SHP2-C SH2 = assay: as above
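Throughout, for SH2 binding enrichment of the phosphorylated peptide, bacterial display: peptide library displayed on the E. coli surface as eCPX fusions, selected cells deep-sequenced, score is each peptide's frequency after selection divided by its frequency in the input.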
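Throughout, for phosphorylation enrichment, bacterial display: 11-residue human phosphosite peptides and single-mutation variants displayed on the E. coli surface, counted by deep sequencing, each peptide's frequency after selection divided by its frequency in the unselected input library; frequency after pTyr selection over input frequency; kinase dosed for 20-30% of maximal phosphorylation in three min.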

Sequence of MERTK (Q12866 whole entry, looked up): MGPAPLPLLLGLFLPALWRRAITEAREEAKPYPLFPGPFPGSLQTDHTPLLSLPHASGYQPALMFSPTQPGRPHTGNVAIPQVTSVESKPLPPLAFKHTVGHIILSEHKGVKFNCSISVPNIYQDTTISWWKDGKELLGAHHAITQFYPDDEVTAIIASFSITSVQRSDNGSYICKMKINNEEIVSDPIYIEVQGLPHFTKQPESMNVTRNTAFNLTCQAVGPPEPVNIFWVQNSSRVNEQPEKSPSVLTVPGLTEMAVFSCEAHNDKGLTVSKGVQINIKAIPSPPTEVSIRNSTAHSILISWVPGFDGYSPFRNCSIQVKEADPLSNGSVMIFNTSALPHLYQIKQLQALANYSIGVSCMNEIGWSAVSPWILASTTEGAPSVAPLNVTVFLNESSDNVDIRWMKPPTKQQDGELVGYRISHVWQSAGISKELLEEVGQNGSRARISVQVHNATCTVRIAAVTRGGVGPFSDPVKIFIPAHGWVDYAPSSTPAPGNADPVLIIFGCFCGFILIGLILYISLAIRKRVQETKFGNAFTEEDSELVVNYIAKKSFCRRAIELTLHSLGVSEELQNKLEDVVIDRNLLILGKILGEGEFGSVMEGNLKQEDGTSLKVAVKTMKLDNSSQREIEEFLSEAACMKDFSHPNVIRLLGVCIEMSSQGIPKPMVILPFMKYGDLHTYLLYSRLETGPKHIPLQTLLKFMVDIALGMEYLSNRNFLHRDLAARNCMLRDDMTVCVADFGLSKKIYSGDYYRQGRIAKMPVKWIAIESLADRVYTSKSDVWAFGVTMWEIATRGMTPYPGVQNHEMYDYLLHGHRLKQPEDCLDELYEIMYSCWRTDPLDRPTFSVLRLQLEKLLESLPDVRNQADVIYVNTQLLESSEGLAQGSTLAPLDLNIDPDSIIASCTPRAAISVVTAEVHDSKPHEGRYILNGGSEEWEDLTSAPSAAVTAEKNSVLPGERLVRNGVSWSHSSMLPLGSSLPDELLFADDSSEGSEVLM
Sequence of Hck (P08631 whole entry, looked up): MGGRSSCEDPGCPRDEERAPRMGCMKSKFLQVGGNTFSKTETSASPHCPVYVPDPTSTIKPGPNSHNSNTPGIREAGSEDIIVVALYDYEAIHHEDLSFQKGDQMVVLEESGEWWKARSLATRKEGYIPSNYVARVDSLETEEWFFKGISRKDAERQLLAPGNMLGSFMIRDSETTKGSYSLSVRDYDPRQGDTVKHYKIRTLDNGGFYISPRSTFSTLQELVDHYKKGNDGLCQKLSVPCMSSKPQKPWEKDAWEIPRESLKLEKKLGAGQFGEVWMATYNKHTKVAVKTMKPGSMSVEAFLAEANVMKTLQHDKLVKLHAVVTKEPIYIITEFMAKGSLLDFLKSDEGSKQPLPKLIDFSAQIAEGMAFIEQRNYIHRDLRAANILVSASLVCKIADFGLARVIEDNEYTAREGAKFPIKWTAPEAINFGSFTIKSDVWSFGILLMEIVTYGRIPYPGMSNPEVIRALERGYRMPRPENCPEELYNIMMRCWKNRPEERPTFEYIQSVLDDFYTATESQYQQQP

| Sequence | phosphorylation enrichment (MERTK) | phosphorylation enrichment (Hck) | phosphorylation enrichment (EPHB2) | phosphorylation enrichment (Fes) | phosphorylation enrichment (Jak2) | phosphorylation enrichment (c-Abl (mouse)) | phosphorylation enrichment (FGFR1) | phosphorylation enrichment (Fer (mouse)) | phosphorylation enrichment (Fyn) | phosphorylation enrichment (AncSZ) | phosphorylation enrichment (FGFR3) | phosphorylation enrichment (EPHB1) | phosphorylation enrichment (c-Src) | SH2 binding enrichment (Grb2 SH2) | SH2 binding enrichment (c-Src SH2) | SH2 binding enrichment (SHP2-C SH2) |
| --- | --- | --- | --- | --- | --- | --- | --- | --- | --- | --- | --- | --- | --- | --- | --- | --- |
| LKGQVYILGRE [ASS1_Y359] | 0.56 | 0.369 | 0.949 | 1.26 | 1.17 | 1.47 | 0.406 | 0.756 | 0.679 | 1.09 | 1.07 | 0.522 | 0.438 | 0.836 | 0.31 | 0.444 |
| LKVDVYRRSHK [FUT3_Y222_G223R] | 0.546 | 0.577 | 0.496 | 1.46 | 1.78 | 0.908 | 0.611 | 0.485 | 0.44 | 1.11 | 0.85 | 0.656 | 0.753 | 1.08 | 0.677 | 0.931 |
| LKYAIYFEVRE [LAMA2_Y1258_A1261V] | 0.954 | 0.827 | 1.23 | 2.57 | 2.44 | 2.14 | 1.09 | 0.929 | 1.17 | 2.08 | 1.39 | 1.67 | 1.45 | 0.399 | 0.544 | 0.573 |
| LLASGYDSPIN [ABLIM1_Y638_R637G] | 0.52 | 0.783 | 0.825 | 1.28 | 0.737 | 1.03 | 0.859 | 0.423 | 0.529 | 1.33 | 1.09 | 0.764 | 0.556 | 0.615 | 1.84 | 0.653 |
| LLASRYDSPIN [ABLIM1_Y638] | 1.09 | 0.923 | 0.929 | 1.65 | 1.59 | 1.13 | 1.12 | 0.607 | 1.18 | 1.32 | 0.636 | 1.58 | 0.96 | 0.704 | 2.63 | 0.991 |
| LLINKYGLSAH [SCP2_Y151] | 0.372 | 0.428 | 0.669 | 0.99 | 0.838 | 0.559 | 0.488 | 0.619 | 0.443 | 0.877 | 0.708 | 0.71 | 0.428 | 0.869 | 0.349 | 0.821 |
| LLKNMYLMLDN [STAT1_Y203_K201N] | 0.745 | 0.921 | 1.02 | 2.63 | 2.77 | 1.7 | 0.868 | 1.02 | 0.593 | 2.85 | 1.65 | 1.34 | 0.933 | 0.975 | 0.945 | 3.55 |
| LLREWYLQDPY [SIX3_Y225] | 0.606 | 0.85 | 0.928 | 1.52 | 1.11 | 1.11 | 0.867 | 0.938 | 1.08 | 1.52 | 1.12 | 0.947 | 1.11 | 1.43 | 0.76 | 1.28 |
| LLVVLNKYRCY [PSEN1_Y154_Y154N] | 0.456 | 0.448 | 0.875 | 1.6 | 1.68 | 0.96 | 0.73 | 0.53 | 0.631 | 1.34 | 1.39 | 1.03 | 0.577 | 0.952 | 0.536 | 0.79 |
| LNCIFYKDQTG [RS1_Y166_W163C_YF] | 0.798 | 0.774 | 1.34 | 2.08 | 2.06 | 1.24 | 0.563 | 1.44 | 0.552 | 1.56 | 1.06 | 1.1 | 1.31 | 0.75 | 0.502 | 0.659 |
| LNEAVYTKMMT [G6PD_Y401_P396L] | 3.19 | 6.11 | 1.8 | 2.05 | 1.15 | 0.881 | 1.38 | 16.1 | 5.35 | 1.9 | 1.29 | 1.76 | 5.76 | 0.659 | 1.61 | 0.414 |
| LNFNEYFRDLN [HPRT1_Y198_D194N_YF] | 0.972 | 0.99 | 1.01 | 2.1 | 2.25 | 2.15 | 1.18 | 1.03 | 0.866 | 1.78 | 0.803 | 1.23 | 1.15 | 1.11 | 0.608 | 0.955 |
| LNLKDYNLVGG [GNAQ_Y356_E355D] | 0.412 | 0.538 | 0.428 | 0.665 | 0.508 | 0.465 | 0.523 | 0.464 | 0.481 | 0.582 | 0.565 | 0.491 | 0.482 | 0.873 | 0.71 | 0.452 |
| LNPLIYTLKNA [OR4C46_Y285] | 0.463 | 2.31 | 0.603 | 1.08 | 0.343 | 0.474 | 0.73 | 0.545 | 2.17 | 0.602 | 0.886 | 0.762 | 3.03 | 0.642 | 0.42 | 0.891 |
| LRGEDCGFSVD [PRKCI_Y430_Y430C] | 1.25 | 0.987 | 1.14 | 2.77 | 2.49 | 1.97 | 0.847 | 0.886 | 0.631 | 1.94 | 1.41 | 2.18 | 1.48 | 0.925 | 0.841 | 0.615 |
| LRLFSYSTTIR [CYP7B1_Y365_S363F] | 0.35 | 0.57 | 0.45 | 1.09 | 1 | 0.663 | 0.357 | 0.457 | 0.421 | 0.815 | 0.773 | 0.654 | 0.358 | 0.983 | 0.494 | 0.871 |
